Data reported in patent US20120295802A1 (published 2012).
Changes are numbered by the printed parent chain. Names may count otherwise. Square brackets hold non-standard residues; d marks the D form. Ends that are not written are not given here. * marks the point of attachment. Biotin = O=C1N[C@H]2[C@H](CS[C@H]2CCCCC(=O)*)N1; pS = N[C@@H](COP(=O)(O)O)C(=O)O

T1: endogenous BACH1 (full-length) of U2OS cells (Homo sapiens (Human), UniProt Q9BX63 1-1249)
T1 construct: Endogenous full-length protein in U2OS cell lysates, detected with a rabbit anti-BACH1 antibody; The phosphorylation state in the lysate was not measured; also called full-length BACH1; wild-type BACH1
T1 sequence: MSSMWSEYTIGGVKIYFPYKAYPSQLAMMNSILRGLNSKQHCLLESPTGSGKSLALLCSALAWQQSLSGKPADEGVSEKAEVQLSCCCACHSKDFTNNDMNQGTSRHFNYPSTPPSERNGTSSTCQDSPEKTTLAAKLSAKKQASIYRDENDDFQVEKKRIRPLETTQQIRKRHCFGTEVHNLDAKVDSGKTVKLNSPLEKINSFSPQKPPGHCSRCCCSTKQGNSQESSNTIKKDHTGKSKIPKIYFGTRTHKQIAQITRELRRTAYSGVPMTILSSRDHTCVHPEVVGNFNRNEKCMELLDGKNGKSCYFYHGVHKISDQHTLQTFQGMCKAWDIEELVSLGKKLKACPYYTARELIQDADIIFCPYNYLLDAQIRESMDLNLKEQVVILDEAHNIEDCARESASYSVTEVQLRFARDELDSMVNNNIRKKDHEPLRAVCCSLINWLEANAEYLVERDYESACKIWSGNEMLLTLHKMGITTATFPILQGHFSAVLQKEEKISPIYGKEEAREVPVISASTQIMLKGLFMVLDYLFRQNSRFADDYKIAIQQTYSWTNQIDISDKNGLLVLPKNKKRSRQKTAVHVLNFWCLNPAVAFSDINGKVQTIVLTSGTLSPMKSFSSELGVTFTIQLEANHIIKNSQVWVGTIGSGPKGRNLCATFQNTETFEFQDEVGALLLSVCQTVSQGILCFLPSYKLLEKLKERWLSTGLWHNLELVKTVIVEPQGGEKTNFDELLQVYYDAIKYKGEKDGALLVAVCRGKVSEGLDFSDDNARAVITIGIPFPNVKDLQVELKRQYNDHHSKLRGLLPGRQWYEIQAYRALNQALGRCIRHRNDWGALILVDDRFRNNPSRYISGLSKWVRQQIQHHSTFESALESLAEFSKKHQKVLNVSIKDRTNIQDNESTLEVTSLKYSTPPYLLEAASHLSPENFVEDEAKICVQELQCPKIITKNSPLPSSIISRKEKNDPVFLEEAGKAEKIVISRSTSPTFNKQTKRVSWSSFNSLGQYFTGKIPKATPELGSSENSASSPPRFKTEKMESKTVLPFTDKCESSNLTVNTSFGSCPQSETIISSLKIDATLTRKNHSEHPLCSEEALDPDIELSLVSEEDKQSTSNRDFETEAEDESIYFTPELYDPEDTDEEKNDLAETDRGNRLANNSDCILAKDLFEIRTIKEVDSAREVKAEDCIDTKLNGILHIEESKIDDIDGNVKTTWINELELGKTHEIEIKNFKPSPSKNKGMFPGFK

B1: myc-tagged BRCA1 tandem BRCT domain construct (residues 1313-1863) M1775R (other, not shown: small tags and cut ends)
chain: QDPFLIGSSKQMRHQSESQGVGLSDKELVSDDEERGTGLEENNQEEQSMDSNLGEAASGCESETSVSEDCSGLSSQSDILTTQQRDTMQHNLIKLQQEMAELEAVLEQHGSQPSNSYPSIISDSSALEDLRNPEQSTSEKAVLTSQKSSEYPISQNPEGLSADKFEVSADSSTSKNKEPGVERSSPSKCPSLDDRWYMHSCSGSLQNRNYPSQEELIKVVDVEEQQLEESGPHDLTETSYLPRQDLEGTPYLESGISLFSDDPESDPSEDRAPESARVGNIPSSTSALKVPQLKVAESAQSPAAAHTTDTAGYNAMEESVSREKPELTASTERVNKRMSMVVSGLTPEEFMLVYKFARKHHITLTNLITEETTHVVMKTDAEFVCERTLKYFLGIAGGKWVVSYFWVTQSIKERKMLNEHDFEVRGDVVNGRNHQGPKRARESQDRKIFRGLEICCYGPFTNRPTDQLEWMVQLCGASVVKELSSFTLGTGVHPIVVVQPDAWTEDNGFHAIGQMCEAPVVTREWVLDSVALYQCQELDTYLIPQIPHSHY
notes: also called M1775R cancer-associated mutant
B2: myc-tagged BRCA1 tandem BRCT domain construct (residues 1313-1863) P1749R (other, not shown: small tags and cut ends)
chain: B1 chain with P437R, R463M
B3: optimal tandem BRCT domain-interacting phosphopeptide YDIpSQVFPF (peptide)
peptide: Biotin-YDI[pS]QVFPF
notes: Found by oriented peptide library screening; Conjugated to streptavidin-coated beads; also called phosphorylated biotinylated peptide

Columns and labels:
[1] = molecular target: T1, endogenous BACH1 (full-length) of U2OS …; test: co-immunoprecipitation from transfected U2OS cells (anti-myc IP, anti-BACH1 blot)
[2] = molecular target: myc-tagged BRCA1 tandem BRCT domain construct (residues 1313-1863) G1738E (human, UniProt P38398 1313-1863); test: pull-down of in vitro translated 35S-labelled protein on bead-immobilized peptide
Method: (§1) FIG. 3A is a schematic representation of protein-peptide contacts between a BRCA1 tandem BRCT domain and the BACH1 phosphopeptide. Hydrogen bonds, Van der Waals interactions and water molecules are denoted by dashed lines, crescents, and circles respectively. In FIG. 3B, the wild-type and mutant myc-tagged BRCA1 tandem BRCT domain constructs containing the indicated mutations were analysed for binding to a bead-immobilized optimal tandem BRCT domain-interacting phosphopeptide, YDIpSQVFPF, or its non-phosphorylated counterpart. […] In FIG. 3C, U2OS cells transfected with wild-type and mutant myc-tagged BRCA 1 tandem BRCT domain constructs were analysed for association with endogenous BACH1.
(§2) An optimal phosphopeptide for binding the BRCA1 BRCTs was determined by oriented peptide library screening as described previously. This peptide was synthesized in both its phosphorylated and non-phosphorylated form with a biotin group at the N-terminus using N-α-FMOC-protected amino acids and standard BOP/HOBt coupling chemistry. These peptides were conjugated to streptavidin coated beads (Sigma-Aldrich). […] The bead-immobilized peptides (10 μL of beads) were added to 10 μL of the in vitro translated [³⁵S]-labeled protein pool in 150 μL binding buffer (50 mM Tris-HCl (pH7.6), 150 mM NaCl, 0.5% NP-40, 1 mM EDTA, 2 mM DTT, 8 μg/mL pepstatin, 8 μg mL⁻¹ aprotinin, 8 μg mL⁻¹ leupeptin, 800 μM Na3VO4, 25 mM NaF).

[3] = molecular target: B1; test: as above
Method: as §1, §2

[4] = molecular target: T2, myc-tagged BRCA1 tandem BRCT domain construct (from residue 1313) Y1853X (human, UniProt P38398 1313-1852); test: as above
T2 construct: Stop at Tyr1853; also called Y1853X (truncates the last 11 residues)
Method: as §1, §2

[5] = molecular target: T3, myc-tagged BRCA1 tandem BRCT domain construct (residues 1313-1863) mutated at Ser1655 alone (human, UniProt P38398 1313-1863); test: as above
T3 construct: also called Ser1655 mutant; S1655A
Method: as §1, §2

[6] = molecular target: T4, myc-tagged BRCA1 tandem BRCT domain construct (residues 1313-1863) mutated at Lys1702 alone (human, UniProt P38398 1313-1863); test: as above
T4 construct: also called Lys1702 mutant; K1702M
Method: as §1, §2

[7] = molecular target: T5, myc-tagged BRCA1 tandem BRCT domain construct (residues 1313-1863) S1655A/K1702M (human, UniProt P38398 1313-1863); test: as above
T5 construct: also called K1702M/S1655A
Method: as §1, §2

[8] = molecular target: B2; test: as above
Method: as §1, §2

Measured: binding result

B1
no binding: [1]

B2
no binding: [1]

B3
no binding: [2] | [3] | [4] | [5] | [6] | [7] | [8]
